# Results from US20080311034A1 (published 2008).
# T1: recombinant human FcγRIIb (R&D Systems #1875-CD-050) (human, UniProt P31994 46-217, limits assumed)
# T1 construct: Bought; also called CD32b; recombinant, soluble, human FcγRIIb
# T1 sequence (looked up): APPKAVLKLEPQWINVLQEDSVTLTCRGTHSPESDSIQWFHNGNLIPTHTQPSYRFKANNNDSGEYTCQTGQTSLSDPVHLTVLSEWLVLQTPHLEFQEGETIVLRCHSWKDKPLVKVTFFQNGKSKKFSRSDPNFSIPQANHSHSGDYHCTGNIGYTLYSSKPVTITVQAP
# T2: recombinant human His-tagged FcγRIIa (R&D Systems #1330-CD-050) (human, UniProt P12318 36-218, limits assumed)
# T2 construct: Bought; also called CD32a; recombinant, soluble, human FcγRIIa
# T2 sequence (looked up): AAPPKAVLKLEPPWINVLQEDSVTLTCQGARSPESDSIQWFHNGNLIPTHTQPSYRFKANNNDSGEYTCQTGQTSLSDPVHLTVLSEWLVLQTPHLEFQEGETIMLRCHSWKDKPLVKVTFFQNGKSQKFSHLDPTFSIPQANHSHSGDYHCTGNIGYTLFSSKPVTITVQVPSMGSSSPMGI
# B1: CHO-CNTO 860 WT (antibody, human IgG1, kappa)
# heavy: not shown
# light: DIQMTQSPSSLSASVGDRVTITCKASQDIRKYLNWYQQKPGKAPKLLIYYATSLADGVPSRFSGSGSGTDYTFTISSLQPEDIATYYCLQHGESPYTFGQGTKLEITRTVAAPSVFIFPPSDEQLKSGTASVVCLLNNFYPREAKVQWKVDNALQSGNSQESVTEQDSKDSTYSLSSTLTLSKADYEKHKVYACEVTHQGLSSPVTKSFNRGEC
# modifications: N-linked glycan at heavy chain Asn297 (CHO-type, highly fucosylated); not carried by the letters
# notes: Anti-human tissue factor human IgG1/kappa; transiently expressed in CHO cells (plasmids p4145/p4146; CHO Abs typically 95% fucosylated), purified by protein A; also called CNTO 860 WT from CHO cells; WT (CHO cell-derived); copies: 2 + 2
# B2: CHO-CNTO 860 I332E (antibody)
# heavy: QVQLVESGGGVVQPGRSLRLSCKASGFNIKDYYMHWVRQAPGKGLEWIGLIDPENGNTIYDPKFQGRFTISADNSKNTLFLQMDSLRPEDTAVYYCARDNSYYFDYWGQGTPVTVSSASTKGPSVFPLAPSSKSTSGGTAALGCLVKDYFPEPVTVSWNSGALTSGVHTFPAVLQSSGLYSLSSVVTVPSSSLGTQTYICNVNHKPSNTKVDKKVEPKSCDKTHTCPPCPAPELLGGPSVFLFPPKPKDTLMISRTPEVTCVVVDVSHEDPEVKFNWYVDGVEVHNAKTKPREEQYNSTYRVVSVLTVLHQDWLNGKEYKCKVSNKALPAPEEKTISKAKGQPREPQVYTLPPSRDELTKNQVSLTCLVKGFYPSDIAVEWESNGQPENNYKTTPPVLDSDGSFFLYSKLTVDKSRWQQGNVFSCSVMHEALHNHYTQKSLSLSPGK
# light: DIQMTQSPSSLSASVGDRVTITCKASQDIRKYLNWYQQKPGKAPKLLIYYATSLADGVPSRFSGSGSGTDYTFTISSLQPEDIATYYCLQHGESPYTFGQGTKLEITRTVAAPSVFIFPPSDEQLKSGTASVVCLLNNFYPREAKVQWKVDNALQSGNSQESVTEQDSKDSTYSLSSTLTLSKADYEKHKVYACEVTHQGLSSPVTKSFNRGEC
# modifications: N-linked glycan at Asn297 of the heavy chain (CHO-type, highly fucosylated); not carried by the letters
# notes: IgG1/kappa Fc variant; transiently expressed in CHO cells (p4157/p4146); also called I332E (CHO cell-derived); I332E from CHO cells; copies: 2 + 2
# B3: YB2/0-CNTO 860 A330I/I332E (antibody, human IgG1, kappa)
# heavy: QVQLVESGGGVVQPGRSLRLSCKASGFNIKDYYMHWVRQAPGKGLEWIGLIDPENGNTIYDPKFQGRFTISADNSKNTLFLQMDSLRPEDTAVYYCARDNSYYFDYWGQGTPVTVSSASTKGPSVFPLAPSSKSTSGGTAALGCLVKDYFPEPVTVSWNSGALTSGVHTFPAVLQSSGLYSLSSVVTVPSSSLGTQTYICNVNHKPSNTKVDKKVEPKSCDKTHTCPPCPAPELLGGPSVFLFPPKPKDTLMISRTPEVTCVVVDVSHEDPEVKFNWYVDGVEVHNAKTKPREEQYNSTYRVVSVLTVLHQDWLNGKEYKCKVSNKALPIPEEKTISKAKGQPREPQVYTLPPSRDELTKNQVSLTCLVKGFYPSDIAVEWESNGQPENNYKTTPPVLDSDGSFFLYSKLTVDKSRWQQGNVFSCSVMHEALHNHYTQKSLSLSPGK
# light: DIQMTQSPSSLSASVGDRVTITCKASQDIRKYLNWYQQKPGKAPKLLIYYATSLADGVPSRFSGSGSGTDYTFTISSLQPEDIATYYCLQHGESPYTFGQGTKLEITRTVAAPSVFIFPPSDEQLKSGTASVVCLLNNFYPREAKVQWKVDNALQSGNSQESVTEQDSKDSTYSLSSTLTLSKADYEKHKVYACEVTHQGLSSPVTKSFNRGEC
# modifications: N-linked glycan at heavy chain Asn297 (YB2/0-type, low fucose); not carried by the letters
# notes: IgG1/kappa Fc variant; stably expressed in YB2/0 cells (p4178/p2402); EU numbering; also called A330I/I332E (YB2/0 cell-derived); A330I/I332E from YB2/0 cells; copies: 2 + 2
# B4: YB2/0-CNTO 860 A330Y (antibody, human IgG1, kappa)
# heavy: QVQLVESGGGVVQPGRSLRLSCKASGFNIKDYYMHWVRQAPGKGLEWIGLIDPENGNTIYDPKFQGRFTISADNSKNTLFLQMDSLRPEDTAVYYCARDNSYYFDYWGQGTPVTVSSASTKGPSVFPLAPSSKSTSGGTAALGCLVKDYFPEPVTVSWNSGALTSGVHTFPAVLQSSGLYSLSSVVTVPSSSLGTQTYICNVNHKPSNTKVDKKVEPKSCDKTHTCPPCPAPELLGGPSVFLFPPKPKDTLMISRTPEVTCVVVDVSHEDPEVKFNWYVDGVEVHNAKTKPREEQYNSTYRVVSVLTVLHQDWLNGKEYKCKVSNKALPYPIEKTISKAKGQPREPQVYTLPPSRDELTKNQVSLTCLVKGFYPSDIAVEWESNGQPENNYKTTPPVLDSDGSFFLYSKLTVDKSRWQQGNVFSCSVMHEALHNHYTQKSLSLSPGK
# light: DIQMTQSPSSLSASVGDRVTITCKASQDIRKYLNWYQQKPGKAPKLLIYYATSLADGVPSRFSGSGSGTDYTFTISSLQPEDIATYYCLQHGESPYTFGQGTKLEITRTVAAPSVFIFPPSDEQLKSGTASVVCLLNNFYPREAKVQWKVDNALQSGNSQESVTEQDSKDSTYSLSSTLTLSKADYEKHKVYACEVTHQGLSSPVTKSFNRGEC
# modifications: N-linked glycan at heavy chain Asn297 (YB2/0-type, low fucose); not carried by the letters
# notes: IgG1/kappa Fc variant; stably expressed in YB2/0 cells (p4176/p2402); EU numbering; also called A330Y (YB2/0 cell-derived); copies: 2 + 2
# B5: CHO-CNTO 860 A330Y (antibody, human IgG1, kappa)
# heavy: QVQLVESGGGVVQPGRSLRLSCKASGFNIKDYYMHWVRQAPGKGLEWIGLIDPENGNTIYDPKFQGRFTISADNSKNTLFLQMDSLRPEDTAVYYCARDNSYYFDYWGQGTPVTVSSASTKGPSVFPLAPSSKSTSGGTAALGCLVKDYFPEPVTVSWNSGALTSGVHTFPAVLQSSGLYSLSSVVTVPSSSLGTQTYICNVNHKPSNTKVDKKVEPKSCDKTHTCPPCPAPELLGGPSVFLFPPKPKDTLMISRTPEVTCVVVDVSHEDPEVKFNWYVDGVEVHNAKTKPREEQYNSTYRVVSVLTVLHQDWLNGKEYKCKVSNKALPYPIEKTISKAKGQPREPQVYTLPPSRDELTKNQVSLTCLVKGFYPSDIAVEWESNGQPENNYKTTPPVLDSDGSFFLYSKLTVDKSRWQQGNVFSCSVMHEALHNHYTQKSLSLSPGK
# light: DIQMTQSPSSLSASVGDRVTITCKASQDIRKYLNWYQQKPGKAPKLLIYYATSLADGVPSRFSGSGSGTDYTFTISSLQPEDIATYYCLQHGESPYTFGQGTKLEITRTVAAPSVFIFPPSDEQLKSGTASVVCLLNNFYPREAKVQWKVDNALQSGNSQESVTEQDSKDSTYSLSSTLTLSKADYEKHKVYACEVTHQGLSSPVTKSFNRGEC
# modifications: N-linked glycan at Asn297 of the heavy chain (CHO-type, highly fucosylated); not carried by the letters
# notes: IgG1/kappa Fc variant; transiently expressed in CHO cells (p4183/p4146); EU numbering; also called A330Y (CHO cell-derived); copies: 2 + 2
# B6: CHO-CNTO 860 A330I (antibody, IgG1)
# heavy: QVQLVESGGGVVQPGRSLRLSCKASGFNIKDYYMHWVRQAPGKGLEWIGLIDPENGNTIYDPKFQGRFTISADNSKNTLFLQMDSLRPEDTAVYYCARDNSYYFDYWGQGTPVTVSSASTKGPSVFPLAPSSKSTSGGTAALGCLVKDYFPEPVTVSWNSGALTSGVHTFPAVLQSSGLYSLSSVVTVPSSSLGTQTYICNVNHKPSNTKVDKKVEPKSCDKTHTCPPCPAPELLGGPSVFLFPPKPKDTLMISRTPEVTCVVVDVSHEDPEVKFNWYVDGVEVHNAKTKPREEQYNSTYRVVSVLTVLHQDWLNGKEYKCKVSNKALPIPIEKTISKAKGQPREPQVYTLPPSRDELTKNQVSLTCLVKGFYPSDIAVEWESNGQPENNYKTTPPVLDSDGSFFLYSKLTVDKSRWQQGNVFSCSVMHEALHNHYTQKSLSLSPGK
# light: DIQMTQSPSSLSASVGDRVTITCKASQDIRKYLNWYQQKPGKAPKLLIYYATSLADGVPSRFSGSGSGTDYTFTISSLQPEDIATYYCLQHGESPYTFGQGTKLEITRTVAAPSVFIFPPSDEQLKSGTASVVCLLNNFYPREAKVQWKVDNALQSGNSQESVTEQDSKDSTYSLSSTLTLSKADYEKHKVYACEVTHQGLSSPVTKSFNRGEC
# modifications: N-linked glycan at Asn297 of the heavy chain (CHO-type, highly fucosylated); not carried by the letters
# notes: IgG1/kappa Fc variant; EU numbering; also called A330I (CHO cell-derived); copies: 2 + 2
# B7: CHO-CNTO 860 I332E/S239D (antibody, human IgG1, kappa)
# heavy: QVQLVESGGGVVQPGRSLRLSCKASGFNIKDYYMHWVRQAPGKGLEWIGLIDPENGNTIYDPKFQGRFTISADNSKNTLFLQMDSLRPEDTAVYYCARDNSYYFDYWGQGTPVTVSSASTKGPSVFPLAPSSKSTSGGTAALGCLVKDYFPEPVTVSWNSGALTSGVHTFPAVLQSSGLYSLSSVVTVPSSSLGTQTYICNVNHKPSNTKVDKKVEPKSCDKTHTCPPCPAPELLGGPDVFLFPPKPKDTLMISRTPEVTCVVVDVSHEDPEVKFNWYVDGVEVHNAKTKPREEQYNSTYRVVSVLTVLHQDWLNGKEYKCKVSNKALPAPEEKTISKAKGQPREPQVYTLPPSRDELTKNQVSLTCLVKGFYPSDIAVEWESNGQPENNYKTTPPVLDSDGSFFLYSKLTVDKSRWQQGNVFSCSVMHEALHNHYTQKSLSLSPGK
# light: DIQMTQSPSSLSASVGDRVTITCKASQDIRKYLNWYQQKPGKAPKLLIYYATSLADGVPSRFSGSGSGTDYTFTISSLQPEDIATYYCLQHGESPYTFGQGTKLEITRTVAAPSVFIFPPSDEQLKSGTASVVCLLNNFYPREAKVQWKVDNALQSGNSQESVTEQDSKDSTYSLSSTLTLSKADYEKHKVYACEVTHQGLSSPVTKSFNRGEC
# modifications: Heavy chain N297 carries the CHO-type N-linked glycan (about 95% fucosylated); not carried by the letters.
# notes: IgG1/kappa Fc variant; transiently expressed in CHO cells (p4186/p4146); EU numbering; also called S239D/I332E (CHO cell-derived); copies: 2 + 2
# B8: CHO-CNTO 860 I332E/A330I (antibody, human IgG1, kappa)
# heavy: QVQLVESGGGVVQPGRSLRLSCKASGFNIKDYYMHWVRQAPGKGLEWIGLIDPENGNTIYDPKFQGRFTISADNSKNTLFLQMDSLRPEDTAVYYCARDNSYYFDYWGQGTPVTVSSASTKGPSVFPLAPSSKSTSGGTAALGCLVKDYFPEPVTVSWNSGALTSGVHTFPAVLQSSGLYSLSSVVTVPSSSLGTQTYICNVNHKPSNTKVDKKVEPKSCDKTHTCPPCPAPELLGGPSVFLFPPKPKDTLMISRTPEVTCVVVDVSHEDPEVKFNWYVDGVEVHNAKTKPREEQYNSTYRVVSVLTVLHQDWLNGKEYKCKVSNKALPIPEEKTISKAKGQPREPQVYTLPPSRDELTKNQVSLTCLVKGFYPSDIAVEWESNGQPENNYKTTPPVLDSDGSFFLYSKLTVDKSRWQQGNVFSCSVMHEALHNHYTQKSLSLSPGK
# light: DIQMTQSPSSLSASVGDRVTITCKASQDIRKYLNWYQQKPGKAPKLLIYYATSLADGVPSRFSGSGSGTDYTFTISSLQPEDIATYYCLQHGESPYTFGQGTKLEITRTVAAPSVFIFPPSDEQLKSGTASVVCLLNNFYPREAKVQWKVDNALQSGNSQESVTEQDSKDSTYSLSSTLTLSKADYEKHKVYACEVTHQGLSSPVTKSFNRGEC
# modifications: Heavy chain N297 carries the CHO-type N-linked glycan (about 95% fucosylated); not carried by the letters.
# notes: IgG1/kappa Fc variant; transiently expressed in CHO cells (p4185/p4146); EU numbering; also called A330I/I332E (CHO cell-derived); A330I/I332E variant from CHO cells; copies: 2 + 2
# B9: YB2/0-CNTO 860 A330I (antibody, IgG1)
# heavy: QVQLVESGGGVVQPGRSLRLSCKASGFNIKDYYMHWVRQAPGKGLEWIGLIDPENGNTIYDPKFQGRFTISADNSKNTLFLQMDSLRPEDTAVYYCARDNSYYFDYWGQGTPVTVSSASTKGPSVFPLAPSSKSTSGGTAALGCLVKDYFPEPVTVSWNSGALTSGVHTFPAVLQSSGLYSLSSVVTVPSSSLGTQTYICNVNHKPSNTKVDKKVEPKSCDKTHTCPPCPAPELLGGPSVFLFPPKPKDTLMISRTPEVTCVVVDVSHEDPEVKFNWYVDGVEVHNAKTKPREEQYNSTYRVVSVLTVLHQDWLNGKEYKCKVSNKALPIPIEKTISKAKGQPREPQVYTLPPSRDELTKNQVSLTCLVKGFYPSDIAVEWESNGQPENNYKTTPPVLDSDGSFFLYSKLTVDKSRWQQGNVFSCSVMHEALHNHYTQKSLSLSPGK
# light: DIQMTQSPSSLSASVGDRVTITCKASQDIRKYLNWYQQKPGKAPKLLIYYATSLADGVPSRFSGSGSGTDYTFTISSLQPEDIATYYCLQHGESPYTFGQGTKLEITRTVAAPSVFIFPPSDEQLKSGTASVVCLLNNFYPREAKVQWKVDNALQSGNSQESVTEQDSKDSTYSLSSTLTLSKADYEKHKVYACEVTHQGLSSPVTKSFNRGEC
# modifications: N-linked glycan at heavy chain Asn297 (YB2/0-type, low fucose); not carried by the letters
# notes: IgG1/kappa Fc variant; stably expressed in YB2/0 cells (p4177/p2402); EU numbering; also called A330I (YB2/0 cell-derived); A330I mutant expressed in YB2/0 cells; copies: 2 + 2
# Columns and labels:
# [1] = biological target: T1, recombinant human FcγRIIb (R&D Systems …); assay: AlphaScreen, FcγRIIb on nickel acceptor beads
# Experimental: (§1) FcγRIIa (CD32a) AlphaScreen—Nickel acceptor beads (Perkin Elmer #6760619C) were diluted 1:50 in assay buffer (PBS, pH 7.4, 4 mg/ml BSA, 0.01% Tween-20), and 27.5 μl were added to each well of a Nunc V-bottom polypropylene plate (VWR # 62409-108) (Powers G., Notebook 9006, pp. 169-175, 182-185). A 2.0 μg/ml solution of recombinant human His-tagged FcγRIIa (R&D Systems #1330-CD-050) was prepared in assay buffer and 27.5 μl added to each well of a separate Nunc V bottom polypropylene plate. Titrations of test Abs were prepared in the Nunc V bottom polypropylene plate starting at 30 μg/ml. A 2 μg/ml solution of biotinylated goat F(ab′)₂ anti-human IgG F(ab′)₂ (Jackson Immunoresearch #109-066-097) was prepared in assay buffer and 27.5 μl added to each well of another Nunc V bottom polypropylene plate. A 1:50 dilution of streptavidin donor beads (PerkinElmer # 6760002) was prepared in assay buffer and 27.5 μl added to each well of another Nunc V bottom polypropylene plate. A volume of 5 μl of each reagent was added to the corresponding quadrants of a low-volume, non-binding white 384-well plate (Corning # 3673) in the following order: acceptor beads, FcγRIIa, test Ab, biotinylated anti-human IgG F(ab′)₂, and streptavidin donor beads. The plates were incubated for 30 minutes with shaking and the O.D.s determined using an Envision plate reader.
# FcγRIIb (CD32b) AlphaScreen—The assay was performed as described above for FcγRIIa except that FcγRIIa was replaced with FcγRIIb (R&D Systems #1875-CD-050).
# [2] = biological target: T3, recombinant human His-tagged FcγRI (extracellular domain, R&D Systems #1257-FC-050) (human, UniProt P12314 16-292); assay: ELISA, His-tagged FcγRI captured on HisGrab plate
# T3 construct: extracellular domain; Bought; also called CD64; recombinant, soluble, human FcγRI
# T3 sequence (P12314 16-292): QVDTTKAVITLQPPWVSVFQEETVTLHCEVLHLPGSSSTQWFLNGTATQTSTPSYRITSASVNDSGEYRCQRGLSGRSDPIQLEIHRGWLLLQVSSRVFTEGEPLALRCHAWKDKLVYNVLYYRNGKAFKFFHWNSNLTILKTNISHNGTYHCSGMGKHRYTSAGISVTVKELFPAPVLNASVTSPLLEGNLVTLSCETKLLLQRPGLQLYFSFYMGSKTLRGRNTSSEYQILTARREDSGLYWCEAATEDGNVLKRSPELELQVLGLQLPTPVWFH
# Experimental: FcγRI (CD64) ELISA —50 μl of a 1 μg/ml solution of recombinant human His-tagged FcγRI (extracellular domain, R&D Systems #1257-FC-050) in ELISA buffer (PBS, pH 7.4, 4 mg/ml BSA, 0.01% Tween-20) was added to each well of HisGrab 96 well plates (Pierce #15142) (Powers G., Notebook 9006, pp. 166-168, 180-181). The plate was incubated with shaking for 3 hours. The plates were washed 3× with 300 μl of wash buffer (PBS, 0.01% Tween-20) on a plate washer. Serial dilutions of the CNTO860 antibody Fc-variant samples were made in ELISA buffer and 50 μl per well of each titration were added in duplicate to the FcγRI-coated plates. The plates were incubated with shaking for 1 hour. The plates were washed 3× with 300 μl of wash buffer on a plate washer. 50 μl of a 1:10,000 dilution of HRP-labeled goat F(ab′)₂ anti-human IgG F(ab′)₂ (Jackson Immunoresearch # 109-036-097) in ELISA buffer was added to each well. The plates were incubated with shaking for 30 minutes. The plates were washed 3× with 300 μl of wash buffer on the plate washer. 50 μl per well TMB substrate (RDI #RDI-TMBSU-1L) was added to each well and developed for 5 minutes. The reaction was stopped by adding 100 μl 0.2 N sulfuric acid. The plates were read at OD450 on an Envision plate reader.
# [3] = biological target: T4, recombinant human His-tagged FcγRIIIa (extracellular domain made at Centocor) (human, UniProt P08637 17-208); assay: ELISA, His-tagged FcγRIIIa captured on HisGrab plate
# T4 construct: extracellular domain; also called CD16a; recombinant, soluble, human FcγRIIIa
# T4 sequence (P08637 17-208): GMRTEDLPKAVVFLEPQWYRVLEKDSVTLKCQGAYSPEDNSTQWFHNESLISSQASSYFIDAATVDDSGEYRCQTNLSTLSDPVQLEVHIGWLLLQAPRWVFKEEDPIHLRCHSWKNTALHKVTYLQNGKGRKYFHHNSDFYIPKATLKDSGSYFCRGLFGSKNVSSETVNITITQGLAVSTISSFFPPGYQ
# Experimental: FcγRIIIa (CD16a) ELISA—A human FcγRIIIa binding assay was done in ELISA format similar to the assay for FcγRI above. 50 μl of a 2 μg/ml solution of recombinant human His-tagged FcγRIIIa (extracellular domain made at Centocor) in ELISA buffer (PBS, 4 mg/ml BSA, 0.01% Tween-20) was added to each well of HisGrab 96 well plates (Pierce #15142) (Powers G., Notebook 10378, 19-23). The plate was incubated for 3 hours at room temp. The plates were blocked with 200 μl of Starting Block (Pierce #15142) for 30 min, and then washed 3× with 300 μl of wash buffer (PBS, 0.01% Tween-20) on a plate washer. Serial dilutions of the CNTO 860 test samples were made in Starting Block buffer and 50 μl per well of each titration were added in duplicate to the FcγRIIIa-coated plates. The plates were incubated for 1 hour. The plates were washed 3× with 300 μl of wash buffer on a plate washer. 50 μl of a 1:10,000 dilution of HRP-labeled goat F(ab′)2 anti-human IgG F(ab′)2 (Jackson Immunoresearch # 109-036-097) in Starting Block buffer was added to each well. The plates were incubated for 30 minutes. The plates were washed 3× with 300 μl of wash buffer on the plate washer. 50 μl per well TMB substrate (RDI #RDI-TMBSU-1L) was added to each well and developed for 3-5 minutes. The reaction was stopped by adding 100 μl […] sulfuric acid. The plates were read at OD450 on an Envision plate reader. Antibody concentration vs OD450 values were graphed for each CNTO 860 variant and the antibody concentration needed to achieve an OD450 reading of 0.14 established by interpolation within each data curve.
# [4] = biological target: T2, recombinant human His-tagged FcγRIIa …; assay: AlphaScreen, His-tagged FcγRIIa on nickel acceptor beads
# Experimental: as §1
Binder,"concentration (ng/ml) required for an O.D. value of 200,000 [1] [ng/mL]",concentration (ng/ml) required for an O.D. value of 1.0 [2] [ng/mL],concentration (ng/ml) required for an O.D. value of 0.14 [3] [ng/mL],concentration (ng/ml) required for a set O.D. signal [4] [ng/mL]
B1,165,480,4500,97
B2,105,300,750,76
B3,10500,310,240,1500
B4,165,420,340,78
B5,280,420,3300,142
B6,75000,750,19000,2250
B7,27,480,600,75
B8,4500,420,520,900
B9,37000,570,1200,450
